The nature of the series: soluble on expression in E. coli; label from the status in PepcDB or PDB records.
Consider “MDRDWGGKTGGGGVASSEQTEVSRRERLRQLALETIDLKKDPYFMRNHLGGYECKLCLTLHTNEGNYLAHTQGRRHQMNLARRAAREAKEKPQTVAPPPKIVPKKTIKIGRPGYRIIKQRDPETDQLSLLFQIQYPEIAEDVQPRHRFMSSFEQKVERPDPKYQFLLFAAEPYETIAFKIPNWEIEKSEGNYYLHWDKDNKTFTLQIYFKPRSQPPVKNQQEIPSQQASVGNLMKQQRDPFAPIAFGT”, for which the “soluble on expression in E. coli” value is “soluble”.
For “MDRIRNDGVFYEIAYAESLMPATRKNTLFNGRVLIRSLKSKNIIFSSGAETMLDLRSPVDVMNMSLLWGVANNEARKMISGFPKNLLLQAECRGTGNGDVCSMKLSDAEKLAGNGEEEEQDGASEEKVVVGKEEEAEKVKAPPIEVRMNHSQYQALLQATKNANDMMKKIKASKAASSS” the value was “not soluble”; for “MDSIIELRHLKTLLALEETGSVSLAAKRVFLTQSALSHQIRMLENHYGTPLFERKSTPLRFTPVGERLLRLAHELIPQVAVAEWDLARITEGEAGELRIAVECHTCFDWLMPAMGEFRPMWPQVELDIVSGFQADPVGLLLQHRADLAIVSEAEKQNGISFQPLFAYEMVGICAPDHPLAAKNVWTAEDFIGETLITYPVPDEMLDLPKKILIPKNINPPRRHSELTIAIIQLVASRRGIAALPYWTVMPYLEKGYVVHRQITADGLQSKLYAAIRTEDTDKSYLNNFCQIIRERGFADLPGLSELEPV”, “not soluble”; for “MDSRLSDFLARAESVLARLEPLLPAVREAVDWERSLAARWHRDGRSGYLQPLEVSLDLRLADLLGVERQREQLERNTRQFVAGQPANHALLWGARGTGKSSLVRALLAELAGAGLRLIEIERDHLADLPRVVEQLQGLPQRFVLFCDDLSFDAGEGDYRVLKSVLDGSLEQAPENVLLYATSNRRHLVSEKQSDNENWKMVDGELHPNEAVEDKIALSDRFGLWLSFYPFTQEHFLSVVHHWVDVLAEKAGLAWSWSEELEKEAIRWALGRGNRNGRCAYQFSRYWVGKQLLERQA”, “not soluble”.
As for “MDSSNPSSLPLEKSSGNVQKGKLLNIWSRCIAQPSSFLGSSISRFWANADIKNRVCSAAIGRVNFVSKCLKKFPEVSLSCNISASLSLNTGKEKVKNEDLEKQERCHKVAMIEYEIQNLERQLKKRQF”, the “soluble on expression in E. coli” value is reported as “not soluble”.
Under “MDSSNYFYGGNNICIINTKWGKHSGIGGYAEIIDTLVGNFTNISSWAKIGIRDHIHTNFLICDFVYKDNDHIMPPGISSFEDYWVKIGNDVWVGTNVTILRGVEVGDGAVIAAGSVVTKSIPPYAIVGGNPAKFIKWRFPFEVREKLLEIKLEHHHHHH” stands “not soluble”; under “MDSTKVTLTVRGSTAFGEVIAVVGSCETLGSWCQQKAVTLQPAEEDGTLWRTTIHVPRGAETKYRYFKAFILESKNAGGPCQVIVNRWETHQLPRSLSPSEPELVVDDGHFGVHDGAECVDSGWLTCQTEIRLRLHYSVKPPVSITKKKFKTSRIRLKPMLEGVEEEEDED”, “soluble”.
As to “MDTISDVQIHWRKKDYLSMSLLDDFGIAETTVKEHSVNDQIIVTLSADHRVRMIIRYEMDESHIPMIKNLVIRAFFIGSQ”, the “soluble on expression in E. coli” value is reported as “soluble”.
As for “MDTYKLILNGKTLKGETTTEAVDAATAEKVFKHYANEHGVHGHWTYDPETKTFTVTE”, the “soluble on expression in E. coli” value is reported as “soluble”.
For “MDVIRSSASDILGALRSRQLSSEAVMEATLARIAAVNPELNAIVALRPTDELLAEARAADAVAPEARGALHGLPIAVKDLVETAGIVSSHGSPLFRDHVPERDDLIAARIRAAGAILIGKTNVPEFGLGSHTFNPVYGATGNPYAPNLTCGGSSGGAAVALATGMTALADGSDMMGSLRNPAAWCNVYGFRPSWGRVPSEPLGDTFLHQLATLGPMGRSPADIAILLDVISGADPRQPHGFDSAPVAPLRPAATRGLRLGWLGDWGGAFPTEPGILPLCETALKIFSDLGCTVEKVPPPFDAEALWESWITLRSWSVGAGLAPLSEKRAQLKDSAQWELDRGLALSAMEVDRASVTRSAWFMRATELFESYDALILPSAQVWPFDLDRPYPTEIAGQAMDTYHRWMQVVTPVSLIGLPSLAMPAGFGDAGLPMGVQIFGPRGGDAALLALGEAYHAATTWPQRHP” the value was “not soluble”; for “MDVKHNPKKEVIERSLNATEKAIESIREGDLVRRHTVLELRDMQISMSEDFDQIRGMMHELDHQIDKERAENSKWMNRKMEKAKATADQALASTLMVKDVQLLEKKVNILKDSVIQVNKAFYKYEKDVDMKDLMDQVTDMVHRTEKKEQDALEPHATDEQAIEKAFRGAIEGLYGLKSSNPKVMEEAKLLAGEMRVFRDAAANKNFHSMISKVAPGKSGVSLDSSSSESSFSTSASSSLAKPNGKSSSSAASSISGSH”, “not soluble”.
Under “MDVPADSHIKYEDAIDYWTDVDATVDGVLGGYGEGTVVPTMDVLGSNNFLRKLKSRMLPQENNVKYAVDIGAGIGRVSKTMLHKHAAKIDLVEPVKPFIEQMHVELAELKDKGQIGQIYEVGMQDWTPDAGKYWLIWCQWCVGHLPDAELVAFLKRCIVGLQPNGTIVVKENNTPTDTDDFDETDSSVTRSDAKFRQIFEEAGLKLIASERQRGLPRELYPVRMYALKPMPN” stands “soluble”; under “MDVTATPRPHSNTQRPTQAYYVPRKLLECGRGPQSKPTTIDKNEKPIQTSAQQKQKPRPLMDTVISAPPSSLKEKSPQSNRQTKSNKKSSPPPRKSPVMTSSYQVQYPNSPRDLHLVSSTPSSRSSSSMSSNNGIVSPTLTVSSPRIVKGGPQKYSMSRPNAFAPMIAQSDEKECICDRKNTHVVCKRCGYECVGRVQVTCGKHPLILALNDLRECPNPVCHSVQLLECDELDDQDVHDDGVEQLLAEPIEKIDLLS”, “not soluble”; under “MDVTNDDYIRLLSALLPPGPVWSASDPAIAGAAPSLTRVHQRADALMRELDPRTTTELINRWERLCGLPDECIPAGTQTLRQRQQRLDAKVNLAGGINEDFYLAQLAALGRPDATITRYDKSTFTCSSACTDAVNAPEWRYYWQVNMPATTNSTWMTCGDPCDSALRIWGDTVVECVLNKLCPSHTYVIFKYPE”, “soluble”.
Consider “MDWEERENPKRLVKTFAFPNFREALDFANRVGALAERENHHPRLTVEWGRVTVEWWTHSAGGVTEKDREMARLTDALLQR”, for which the “soluble on expression in E. coli” value is recorded as “soluble”.
With “MDWTRRLRLQHLQLLVSLMETGNLSGTARAAHTTQPGLSKWLKELEEDVGAPLFERHARGLRPTPYGMTLFNHAQRVLTEMERARQNLEAMRSGSGSRVLLGTSPASAPSLVPRALRAFLGRYPGAQVELLEGTMNGLLERLEKRQLDVVVGRLDNYAPRASLRCEVLYSEAIVVMARPGHPLAQAAALDWEDVRRYDWIVWPPGSPIRSKLDMALTQGGRQPPAYRLESSSMLANIELLRGSDMLSIGSARVVEHLAGLGLVARLALEIPGEGAVGMCWRDEPHRDRASEDLLACLREGAAAE”, the “soluble on expression in E. coli” value was “not soluble”.
With “MDYDQQPIMYDEVELLIQAVDQQPHPLLRLRDKAIIQLGLQGGFRRSELANLKVHYLSFMRDKLKVRLPFSKSNQQGLREWKSLPDSEPFAAYHAVKSWLNESQITDGHLFRSISRDGKTLRPYHVNDNSKPKSTFSRNSGFLNGDDIYRIIKQYCLKAGLPAQYYGAHSLRSGCVTQLHENNKDILYIMARTGHTDPRSLRHYLKPKEDLEHHHHHH”, the “soluble on expression in E. coli” value is recorded as “not soluble”.
Regarding “MDYEIENNHADSIRRGSIEVICGSMFSGKTEELLRRLRRAKIARQTVEIFKPTIDIRYDETDVVSHDKNAIASTPVDNSANILLLSSQVDVVGIDEAQFFDEGLVEVAQQLADQGVRVVIAGLDMDFRRQPFGPMPGLCAIADSVTKVHAVCVECGRLASYSFRRVQGDQQVMLGELNEYSPLCRTCYRKCSSPPQTEEIHSTILEHHHHHH”, the “soluble on expression in E. coli” value is given as “soluble”.
Take “MDYEILFSDETMNYADAGTYCQSRGMALVSSAMRDSTMVKAILAFTEVKGHDYWVGADNLQDGAYNFLWNDGVSLPTDSDLWSPNEPSNPQSWQLCVQIWSKYNLLDDVGCGGARRVICEKELDD”: the “soluble on expression in E. coli” value was “soluble”.

For the origin of these results see the DeepSol protein solubility set.
